Measured values as given in publication PMC8967028.

Columns and labels:
Test in all cases: SPR; Biacore T200; […], single cycle kinetics, […]; 25°C; PBS, 0.05% Tween 20, 3.4 mM EDTA; 1:1 binding model; triplicate; […]
[1] = biological target: SARS-CoV-2 B.1.351 (Beta) spike (S) receptor binding domain (SARS-CoV-2)
[2] = biological target: SARS-CoV-2 B.1.617.2 (Delta) spike (S) receptor binding domain (SARS-CoV-2)
[3] = biological target: SARS-CoV-2 B.1.1.529 (Omicron) spike (S) receptor binding domain (SARS-CoV-2)

Substance | koff [1] | koff [2] | koff [3]
VHH-72-Fc L97W (Fc fusion) | 0.0079 s⁻¹ | 0.00081 s⁻¹ | –
VHH-72-Fc L97W,T99V (Fc fusion) | 0.00056 s⁻¹ | 0.00016 s⁻¹ | 0.061 s⁻¹
VHH-72-Fc S56M (Fc fusion) | 0.013 s⁻¹ | 0.001 s⁻¹ | –
VHH-72-Fc S56M,L97W (Fc fusion) | 0.0025 s⁻¹ | 0.00039 s⁻¹ | 0.7 s⁻¹
VHH-72-Fc S56M,L97W,T99V (Fc fusion) | 0.00039 s⁻¹ | 0.00023 s⁻¹ | 0.007 s⁻¹
VHH-72-Fc S56M,T99V (Fc fusion) | 0.00068 s⁻¹ | 0.00035 s⁻¹ | 0.0252 s⁻¹
VHH-72-Fc T99V (Fc fusion) | 0.0077 s⁻¹ | 0.00062 s⁻¹ | –
parental VHH-72-Fc (Fc fusion) | 0.029 s⁻¹ | 0.0051 s⁻¹ | –
